# Laboratory results from article PMC4406087, “Remaining challenges in cellular flavin cofactor homeostasis and flavoprotein biogenesis” (Frontiers in Chemistry, 2015).
# Experiments:
# [1] = test system: T1, Nc1ncnc2c1ncn2[C@@H]1O[C@H](COP(=O)(O)OP(=O)(O)OP(=O)(O)O)[C@@H](O)[C@H]1O; assay: spectrofluorimetric FAD synthesis assay; format: biochemical, Homo sapiens; details: 50 mM Tris-HCl pH 7.5, 5 mM MgCl2, 37°C, FMN 0.1-2 μM, ordered bi-bi, ATP binds first
# T1 construct: recombinant 6His-tagged cytosolic isoform 2, purified
# [2] = test system: T2, Cc1cc2nc3c(=O)[nH]c(=O)nc-3n(C[C@H](O)[C@H](O)[C@H](O)COP(=O)(O)O)c2cc1C; assay: spectrofluorimetric FAD synthesis assay; format: biochemical, Homo sapiens; details: 50 mM Tris-HCl pH 7.5, 5 mM MgCl2, 37°C, Km app at the highest ATP (ATP 1 to 100 μM; 8 μM at lowest ATP)
# T2 construct: recombinant 6His-tagged cytosolic isoform 2, purified
# Sequence of 6His-hFADS2 (Homo sapiens) (chain, as listed by the source): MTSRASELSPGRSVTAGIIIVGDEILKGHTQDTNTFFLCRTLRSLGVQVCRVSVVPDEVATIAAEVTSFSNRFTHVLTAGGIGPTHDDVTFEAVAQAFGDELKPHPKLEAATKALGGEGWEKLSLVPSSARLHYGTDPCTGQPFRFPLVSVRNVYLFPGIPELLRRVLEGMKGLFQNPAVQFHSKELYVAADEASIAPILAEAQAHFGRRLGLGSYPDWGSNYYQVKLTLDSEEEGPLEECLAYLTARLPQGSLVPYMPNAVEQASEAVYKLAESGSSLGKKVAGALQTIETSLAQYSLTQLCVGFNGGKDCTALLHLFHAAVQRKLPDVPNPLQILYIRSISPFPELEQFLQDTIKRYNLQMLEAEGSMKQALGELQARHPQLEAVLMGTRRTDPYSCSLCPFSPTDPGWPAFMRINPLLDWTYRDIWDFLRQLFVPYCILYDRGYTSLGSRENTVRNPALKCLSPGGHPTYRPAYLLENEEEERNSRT
substance,measurement,setting,value
6His-hFADS2 (Homo sapiens),Km,[1],15 µM
same,Km,[2],0.4 µM
